Experimental data as given in patent publication US20160279221A1 (UNITED STATES OF AMERICA AS REPRESENTED BY THE SECRETARY OF …, published 2016).
Substitutions are numbered along the chain they refer to.

B1: monoclonal antibody 1B10 (antibody, V domains shown)
VH: EVQLQESGPGLVQPSQSLSITCTVSGFSLNMYGVHWVRQSPGKGLEWLGVIWSGGTTDYNAAFISRLSINRDNSKSQVFFKMNSLQTDDTAIYYCVRNNGYYVDAMDYWGQGTSVAVSS
VL: DVVMTQTPLSLPVSLGDQASISCRSSQSLVHSNGNTYLHWYLQRPGQSPKLLIYKVSNRFSGVPDRFSGSGSGTDFTLKISRVEAEDLGVYFCSQSTLGPTFGGGTKLEMQR
B2: monoclonal antibody 4E8 (antibody, V domains shown)
VH: B1 VH with G26D, N30I, T56S, N70S, R71K, T87A, V96A, A116T
VL: B1 VL with S32N, R44K, S61F, L98H, G99V, M110I, Q111K
B3: monoclonal antibody 4E11 (antibody, V domains shown)
VH: EVQLQESGPGLVRPSQSLSITCTVSGFSLPLYGVHWVRQSPGKGLEWLGVIWSGGSTDYNAAFVSRLSISKDNSKSQVFFEMNSLQADDTATYYCARNNGYYVDAMDYWGQGTSVTVSS
VL: B1 VL with R44K, Y54F, K79Q, V90F, L98H, G99V, M110I, Q111K
B4: monoclonal antibody 1E10 (antibody, V domains shown)
VH: EVQLQESGAELAKPGASVKLSCKASGYTFTNYLMHWIKQRPGQGLEWIGYINHGSGYTNYNQKFIDRATLTADKSSSTAYMQLRSLTYEDSAVYYCVHGYFDVWGTGTTVTVSS
VL: QIVLTQSPTIMSASPGEKVTMTCSASSSVTYMHWYQQKPGTSPKRWIYDTSKLASGVPARFSGSGSGTSYSLTISSMEAEDAATYYCHQRSSYPTFGGGTKLEIKR
notes: Mouse monoclonal raised against QV, purified from ascites on Protein G; also called mAb 1E10; Monoclonal 1E10

What was measured:
[1] = target: T1, AMA1 on P. falciparum 3D7 strain parasites (Plasmodium falciparum); assay: cell-based or functional assay
[2] = target: T1, AMA1 on P. falciparum 3D7 strain …; assay: cell-based or functional assay; remark: listed apart in the source
[3] = target: T2, P. falciparum W2mef AMA1 recombinant allelic protein (Plasmodium falciparum, UniProt P50492 83-531); assay: dot blot against 7 AMA1 allelic proteins
T2 chain: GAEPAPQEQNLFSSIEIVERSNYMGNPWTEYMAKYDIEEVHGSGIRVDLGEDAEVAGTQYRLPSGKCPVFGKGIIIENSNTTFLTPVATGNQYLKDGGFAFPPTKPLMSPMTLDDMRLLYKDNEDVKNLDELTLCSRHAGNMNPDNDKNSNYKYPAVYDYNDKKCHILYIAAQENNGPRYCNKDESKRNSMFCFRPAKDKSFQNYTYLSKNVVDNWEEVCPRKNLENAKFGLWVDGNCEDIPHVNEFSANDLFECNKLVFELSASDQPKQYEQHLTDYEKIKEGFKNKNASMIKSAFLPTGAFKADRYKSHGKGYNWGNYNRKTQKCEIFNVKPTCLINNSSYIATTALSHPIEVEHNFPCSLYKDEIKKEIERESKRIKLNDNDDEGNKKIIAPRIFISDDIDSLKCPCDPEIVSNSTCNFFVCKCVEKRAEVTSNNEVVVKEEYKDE

[4] = target: T3, P. falciparum HB3 AMA1 recombinant allelic protein (Plasmodium falciparum, UniProt P50491 83-531); assay: dot blot against 7 AMA1 allelic proteins
T3 sequence: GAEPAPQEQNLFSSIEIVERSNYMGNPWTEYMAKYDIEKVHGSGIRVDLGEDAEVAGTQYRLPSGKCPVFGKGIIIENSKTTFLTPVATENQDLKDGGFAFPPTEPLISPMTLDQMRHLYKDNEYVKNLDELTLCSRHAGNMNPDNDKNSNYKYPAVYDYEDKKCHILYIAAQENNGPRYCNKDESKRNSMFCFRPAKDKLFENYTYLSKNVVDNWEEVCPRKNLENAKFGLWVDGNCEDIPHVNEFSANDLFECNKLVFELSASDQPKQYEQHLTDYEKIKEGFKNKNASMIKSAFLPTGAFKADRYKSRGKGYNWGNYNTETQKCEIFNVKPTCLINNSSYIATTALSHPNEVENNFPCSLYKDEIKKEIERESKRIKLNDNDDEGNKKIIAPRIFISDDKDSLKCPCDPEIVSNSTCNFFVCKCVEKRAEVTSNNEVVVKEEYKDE

[5] = target: T4, P. falciparum 7G8 AMA1 recombinant allelic protein (Plasmodium falciparum, UniProt P50492 83-531); assay: dot blot against 7 AMA1 allelic proteins
T4 sequence: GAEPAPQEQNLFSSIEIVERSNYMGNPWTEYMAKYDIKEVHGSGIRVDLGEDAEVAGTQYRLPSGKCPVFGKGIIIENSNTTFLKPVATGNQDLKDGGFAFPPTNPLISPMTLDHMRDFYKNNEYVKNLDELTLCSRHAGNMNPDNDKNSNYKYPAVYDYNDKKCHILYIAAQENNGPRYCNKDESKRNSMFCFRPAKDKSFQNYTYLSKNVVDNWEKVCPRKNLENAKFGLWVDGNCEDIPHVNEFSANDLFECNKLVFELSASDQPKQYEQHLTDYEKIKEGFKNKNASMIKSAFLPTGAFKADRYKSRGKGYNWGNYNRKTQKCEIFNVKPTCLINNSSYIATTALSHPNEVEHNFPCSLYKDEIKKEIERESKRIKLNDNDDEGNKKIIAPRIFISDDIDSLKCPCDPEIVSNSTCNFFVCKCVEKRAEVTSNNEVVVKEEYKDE

[6] = target: T5, P. falciparum FVO AMA1 recombinant allelic protein (Plasmodium falciparum, UniProt P50490 83-531); assay: dot blot against 7 AMA1 allelic proteins
T5 sequence: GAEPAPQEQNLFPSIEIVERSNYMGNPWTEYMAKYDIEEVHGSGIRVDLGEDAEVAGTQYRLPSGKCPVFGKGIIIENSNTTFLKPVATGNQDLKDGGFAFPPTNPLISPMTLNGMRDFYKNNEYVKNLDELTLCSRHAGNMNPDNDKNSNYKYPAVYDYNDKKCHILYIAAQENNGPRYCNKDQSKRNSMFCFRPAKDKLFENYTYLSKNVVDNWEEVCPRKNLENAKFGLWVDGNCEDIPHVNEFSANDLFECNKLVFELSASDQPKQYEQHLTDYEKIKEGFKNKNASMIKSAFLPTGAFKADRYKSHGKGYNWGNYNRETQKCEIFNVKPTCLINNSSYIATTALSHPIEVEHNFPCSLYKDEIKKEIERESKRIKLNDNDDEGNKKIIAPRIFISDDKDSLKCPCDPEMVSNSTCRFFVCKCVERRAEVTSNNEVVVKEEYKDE

[7] = target: T6, P. falciparum 3D7 AMA1 recombinant allelic protein (Plasmodium falciparum, UniProt P22621 83-531); assay: dot blot against 7 AMA1 allelic proteins
T6 chain: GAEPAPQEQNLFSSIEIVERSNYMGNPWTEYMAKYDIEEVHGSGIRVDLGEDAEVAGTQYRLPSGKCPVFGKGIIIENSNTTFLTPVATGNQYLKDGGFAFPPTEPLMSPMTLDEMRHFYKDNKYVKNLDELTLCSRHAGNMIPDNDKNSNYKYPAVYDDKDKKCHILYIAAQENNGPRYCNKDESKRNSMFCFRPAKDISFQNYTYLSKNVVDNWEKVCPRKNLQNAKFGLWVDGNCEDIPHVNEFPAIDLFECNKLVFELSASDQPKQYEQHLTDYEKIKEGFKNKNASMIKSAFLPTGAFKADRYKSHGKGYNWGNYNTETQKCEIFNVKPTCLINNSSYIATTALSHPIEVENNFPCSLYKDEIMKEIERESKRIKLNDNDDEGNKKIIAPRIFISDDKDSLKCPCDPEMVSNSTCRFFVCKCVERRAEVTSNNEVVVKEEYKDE

Binder	Inhibition (GIA at 1 mg/ml against the 3D7 target strain) [1]	IC30 concentration (30% inhibition against the 3D7 target parasites, GIA) [2]	binding result [3]	binding result [4]	binding result [5]	binding result [6]	binding result [7]
B1	65%	150 µg/mL	–	–	–	–	–
B2	67%	150 µg/mL	–	–	–	–	–
B3	62%	220 µg/mL	–	–	–	–	–
B4	20%	1900 µg/mL	binds	binds	binds	binds	binds
